Reference: the DeepSol protein solubility set

Assay: soluble on expression in E. coli; label from the status in PepcDB or PDB records

Soluble on expression in E. coli, not soluble:
MGSDKIHHHHHHMAGVILLLMGEGLACAHDTALLDKAGRLMASRDYAAAYALLEPVESEYSGDPAYDMLFGLAAIDSGHVTRGVFALERVLAVQPYNGNARAQIARAYFLLGEQEAARAEFRNVLNQQPPEEITQVINRYMSAIDKAQGLTTAFSAYLEGGVGHDSNVNSATAASSVTVAVPALGGLIVDIGLDRQARESSDNYTNLAGGISFRTPLARRFALFAGINASQRLNRHQDAFDLGMLDANVGLSYRQHRDTYTVAAQANSLSLDDQTYRRAYGINMQWQRDIDTKNQVNLFAQVSRLAYPDNRIRDADRYIVGGGWAHVFDGDLTPLLFVSGYGGKEQARNEYADFLSYRVHGVRSGGQLTLRPNLVAFTTLGYENRRHDEPETFPFLFATREDKQLDASVGLRYLPGYNWIIKPQFTFIRNDSTVELYSFDRYMVSVSVRREFNW, MGSDKIHHHHHHMAHVGLAMHFRRDPNDRRKELTVSRFIEVVHKNAVASRNTADAFIKEMLHYNIAEYVAGGDGRTHPLQPTAATIERFTGWVTAHLRTLDHIDGGDRLGRYLDRPDMLATLQPLIADGLLASKPVREPHQTFSLFIWLNNGGIVMDWLMSGIDPDHAGLERIPTSVVSIGDFAKWLKLSRTHLGRKLRTAEELGSIGWLGQRGHSVMWVSHGFYEEYMTVQAAKLAVVDNAFKACFPPSQGDD, MGSDKIHHHHHHMAIILGGMVPRPPWKYRLLAAIHAHRNAGDPGADPLVRRAVERLVAVTSRVVFGVEKPGWITSGASEGNLLALYTLREEGYRRVVAFDTSHYSIKKSALTLSMELDLLPTHGGRPRLDLLERRITPDSVVVATVGTTQEGLVDPVEEIAGVAESVGAAVHVDAAYGGYIARFLTGKARFRLEPPVMTVVVDAHKIPEAPPPAGVILASKQKLLDNLWFESPYIPTGRQFGILGTRPGGPIVAAWRRVEDLERNPGFPRLASILMRRLRKTLKALERLGYETPVTPDLPVACATHPRLGEVLERLKASGVRVYRCRSPKPCLHVTNYGRLCRARLGSSRSPRGCLRKPLGASLGNPGVTGLGL, MGSDKIHHHHHHMAILQLGMAFDADAFSASVIGIAADVGSHDSGVHRHGKGQLLYAPQGCITFAWEDAIGILPPTKAVWIPPHTPHRAVMTNVVAYRSLYFDCSRIVAPASVTMVDVNPLLKALIDKMAFWPWDTPEASMTHSCALFWEEFYAARCHSFRLTIPVDRRFHGFRQQLFRPEFLPPDIDSLAATIGASTKTVTRLFKRDTGMSYQEWRQQWRLLKAIELLSGALPVSEVGFRLGFSSDSAFIAFFRKQTGKTPRHFMQG, MGSDKIHHHHHHMAIVRTVLGDITPDQAGSTLTHEHIRYAYPGCELDHRCVWDFDFVAEDVGKQFEEMREGCGIKTVVELTPPEIGRHPELFAQIARRSGMNIVATTGFFPEANAMGIPFHWRRQRKEDVVNMLIRDLTEGMIYDGQKTPYRAGILKAATGSLTAKTRTPVNEKGRRIGNVETHVISAIAAAQREVGCAINTHTQPLDYAVCNPGIELLDELEEGGADPTKVIIGHAFVHPNIDQLKAICERGASVQVDHIGIPWQNDSRAQLDELIAVAMCQLADLGHLDKLVVSYDKFFSHARGPVTEEEPEQLNELVPNDYIMTEFAPRLERKGFGARELHQVMVENPKRLLAF, MGSDKIHHHHHHMAKFDIITIEDKIQQLLEDGFDQASFIYEFLSFYDISKTAITRIRKEQSGEIKNKLYYKTVPTDKSVVAGVAEIEEAIKDKKSQPRYIIVTNFVDFAAKDTKTFDTLQIPFKDLPTYADFFLAWNGVEKVDYAKENPADIKAAERFTRLYDELKKINHFDDRSQEEKEFNLFLIRLLFLLFAEDTEIMKKGIFTNAIKTRSREDGSDLNTLFNQIFASLDIANRLSQENWLQEFPYVNGKLFTDASTDLVFDKKTRKLILEAGELLNWNEINPDILGAMIQTVASSEHRSSSGMHYTSVENIMKVIKPLFLDELTANFQTIVDKINENEDKDITERTRRENRAAYEKELSTLHEHLSKIKFFDPACGSGNFLIITYKELRRLEIRLLKALRELRQDGKIDFFETSKISLNQFYGIELDDFAHEVARLSLWIAEYQMNLEALNEINLQSAFLPLRDAGNITQGNALRLDWDKVVPHTPTDEIYLIGNPPYIGAKIAK, MGSDKIHHHHHHMAKLETFYPIVATPKRAGYKEYLPSAVLTGYIRCFWEADDKNFPGNNLVVPDLCADIIFTIDSKTGLVTDAIFVGVSDAPFESDDESNTELFAVRFYAWSLFLFVEQDLTGSMNRVKEPEEMFAGFVSFFQERFAEMTTNMERIALLEEFLLRKLMMLGKQVHPDFLNGIDKLLQNPNQLALGAVSVRQLERLFQKHMGLAPKQTAKLIRFQKVLQALYENPSVPGAELAYLHGFTDQAHLIKQFKRYSNHTPEEMKQIFLQNVANIQ, MGSDKIHHHHHHMAKPKRRYVCQACGSVTHRWQGQCVDCSEWNTLAEEAPETIFSAKHDLSSGGRRVAFVSLDQPVALPQRRKTGIAEFDRALGGGLVPGCAILMGGDPGIGKSTLLLQASAKVALSGGSAVYISGEEASDQVRLRADRLGLGKAPILLAAATSVRDILTTLGNMEPPSLVVIDSIQTMHSDQIEGAPGTVSQVRGCAFELIRYAKENGVALVLVGHVTKDGSIAGPRVLEHMVDVVMSFEGERSHQYRILRALKNRFGAVDEIGVFAMAGQGLEEVGNPSMLFLSGREQEVPGSAVFPALEGTRPVLVEIQALTVRLASGATPRRAVVGWDSGRLAMLLAVLEARCGLNFSSAEVYLNVAGGYRLTDPAADLAVAAALVSALSDRPLPSGSIWFGEISLAGEVRPVAHTPVRLKEAAKLGFSRGCGPEAGAEKVDGLRYSPLRLLPNLIDRVMGGS, MGSDKIHHHHHHMALEDLVILLVEDDPVFRSIVAAFLTNRGATVIEADDGQQGLERFSQHDFDIVLADLSMPILGGLDMLKQMIKRKPDTLSIVISGNQVMADVVEALRVGASDYLVKPVNDLCLIENAIRQCVGGSSQQDVQLEDLDELSYQELEEHLNLLEQNAEAAKSVQQQLFPPSVIDYPKAKIDYSLFKHDEVSAYFIDSVNVGERYLIMYMAHFHPQDNRCAFASVLLKSFVNQKLKQFRNDNTETVIEPFNMLSYLNERMSKSGLDIYVDIVYAVVELTHYRASIAQAGKGLRCYIRNEEGLMPLAMPDALQLGILEWGQPSTQFRNLMPGESLCVASSNIEHRDMLLNDEFVGLSYSPEVAPGGYVQMSF, MGSDKIHHHHHHMANFKVGCGKAMIQFSASELPIREFKSKLDDLYCRVMLISGKNSWALISFDLTSLRAAAIKRYQELAARLLAIDSNQIWVTVTHTFAAPHLPSTTDSMARKSAYRLIDEKLKESLMLACRQAHEDLQAVQVGQVNINCPLNVNRNVLTKQGWWLGRNLEGYSNHQLRVLAFRKADKTTNLLVNYDIQQSVLDHVTDDHGEQMISSDLMGNGIKAYEGNDRVAIFIPGCAGDQRPLFTGKANQPFAVNKALLANQATIVTEKLEWAVQNVHDWQPLRQLRSSQLPVIVPTQVQQRSTFEIKPTKTYDFQSTKQTTTLHLWALRLNQYEIVGTEPELNSSFGDSCRQALAGNTNTMIATLVNGAAKYLPEQIDFERITYQSMNTQLGLTADQCMLEACVQLRQKISEEEY, MGSDKIHHHHHHMANKNLYGGNPERGWCMVLPGFFSEDIRVDNHAANGRSSKSFISEGRWAKVISQVKKGDYVFIQFGHNDEKADSARHTDPGTTFDDNLRRFVNETRVKGGIPVLFNSIVRRNFVQPEDASIATDARRAPGEQELPKEVNVLYDTHGAYLDSPRNVAKEMGVAFIDMNKITHDLVQGLGPAESKKLFMFVEPEKVPAFPKGREDNTHLNVYGARTIAGLTVDAIAKEIPELAKYVRHYDYVVAQDGTGDFFTVQEAINAVPDFRKNVRTTILVRKGTYKEKIIIPESKINISLIGEDGVVLTNDDFANKKNVFGENMGTSGSSSCYIYAPDFYAENITFENSAGPVGQAVACFVSADRAFFKNCRFLGYQDTLYTYGKHSRQYYEDCYIEGTVDFIFGWSVAVFNRCHIHSKRDGYVTAPSTDQGKKYGYVFYDCRLTADPDVAKVYLSRPWRPYAQAVFIRCELGKHILPEGWHNWGKKEAEKTVFYAEYDSHGEGANPKARAAFSRQLKNLKGYEMETVLAGEDGWNPLKNDSVK, MGSDKIHHHHHHMANVNKTPGKTRRAEVAGGGFAGLTAAIALKQNGWDVRLHEKSSELRAFGAGIYLWHNGLRVLEGLGALDDVLQGSHTPPTYETWMHNKSVSKETFNGLPWRIMTRSHLHDALVNRARALGVDISVNSEAVAADPVGRLTLQTGEVLEADLIVGADGVGSKVRDSIGFKQDRWVSKDGLIRLIVPRMKKELGHGEWDNTIDMWNFWPRVQRILYSPCNENELYLGLMAPAADPRGSSVPIDLEVWVEMFPFLEPCLIEAAKLKTARYDKYETTKLDSWTRGKVALVGDAAHAMCPALAQGAGCAMVNAFSLSQDLEEGSSVEDALVAWETRIRPITDRCQALSGDYAANRSLSKGNMFTPAALEAARYDPLRRVYSWPQ, MGSDKIHHHHHHMANVTPDLVKALFVGFGKNFKDGLAKAPSQYTEIATVVKSTTASNTYAWLGQMPGLTEWIGDRTLTAIQSHGYSIVNKKWANGVEIQRTDIEDDNVGVYSPLIEELGRAAGEKADELVFGALTAGFKTACYDGQYFFDTDHPVGANVDGTNQKSVSNITDDSTGVTEANAWYLLDCSRSLKPIIYQERKAPTPAQITDANDEKVFMKDVFTYGVDSRSNVGYGFWQMAHAVKGKLTAENLWKAIEAMRAVRGDGDKRLAIRPTHIVVPPSLAQAATKLLERELRAEDGVAVDNEFKRMNLKLIVGDYL, MGSDKIHHHHHHMANVVLFGLQDYAELAHYYLEHDSPHQVAAFCVDRQYIPDSGTFKNLPVVAFEDVAHTHPPGDFSFFAPMSPKHMNRDRERIFNAIKAHGYTLISYVSSRATKFDNEIGENCFILEDNTLQPFTRIGDNVVLWSGNHIGHHGRIGDHVTMTSHVVMSGHCDIGAYSFVGVNATLRDGVTIGEGTFVAMASAITKNTEPWSVYRGNPAVKLTMPSTEVKF, MGSDKIHHHHHHMAQQPLAYRMRPQRLEDIVGQQDLVAPGKIIARMVAAKLLSSMILYGPPGTGKTSIASAIAGSTQYAFRKLNAATDSKKDLQIVAEEAKMSGTVILLLDEIHRLDKTKQDFLLPHLESGRIVLIGATTENPYININPAIRSRTQIFEVHPLTPDDIKIALHRALTDTENGLGKLPIDLNTEALNFIAGATNGDLRSALNGLELAAQSTPAANDDRIHITLAVAEACFQRKALMGDKDGDAHYDVISAFQKSIRGSDTDAALHYLAQLVAAGDLPAICRRLMVIAYEDIGMANLPAAARTVQAVQAAQQLGLPEGRIPLADAVIELCLSPKSDSGISAIDAALADVLNGHNGAVPDHLKDAHYAGAKKLGHGTDYKYPHNFPNDWVKQQYLPDTLKNAEYYHPKTNGRFETQLAQQYRRLLTANRH, MGSDKIHHHHHHMARFMGSETEYGISTPSAPFLSPIVTSTHAVVAYSTARGFGEHRVRWDYAQESPLRDTRGFDLRRYHQAPVVDPHAIGVANVFVPNGARFYVDHAHPEYSSPEVTNAWDAMVYDAAGDHILMQAVSDVASFTSQNRSVLDGHDPCPALKIYKNNVDGKGASYGSHENYLYSRETDFDVLAQALIPFFVCRQVIIGAGRVGLGPQGDKPGFQVSQRADYIEQEISLETTLNRGIINTRDEPHTDADHWGRLHVIIGDANMSQTANFLKFGMTSLVLDAIEAGVDFSELKLKNAVSEVAKVSHDLSLTHQLRLADGSELTAIDILRRYLDKVQPFAETPVEQRVTALWGEVLGLLENDLLSTSHLLDWTAKLALIKSFEARGLSINDPKMYLIDLQYSDIDPQKSLYHALVSKGRMKTLCSAQDIADAAATPPQDSRAYFRGRVMDKFGESVLAANWESLIVATSSAKEYRVHTSGLDTLTREEAGELVEKSATIDELIEGLEKENLTPLTAIQAI
